According to a protein production outcome set (Wang et al. 2014):

Test: label from the status in PepcDB records
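Further: failed if final PepcDB status was selected cloned or expressed and not failed if soluble or beyond.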

| Sequence | protein production |
| --- | --- |
| MKIIIVGGGVTGSELARRLIRKKHDVVLIERDEETARHAANRLDCMVVQAAGNDTQILLDAGIKKAEAMIAVTDSDELNMIICGIADSLAPQVIKIARVRNEDYVKALNFSEERTLGINALVYPDEEAALAVIQAIEHGAVSDILSFENSSYELSRFNVCEKSTLDGLAVFDIRKYVDIPFIVVSVEQNGKNRIPSGDTILTAGTRVSILTKPEHIKRFYELSGFETQEFKKIALVGMGRIGKSIAEYLLKNSKGKSFLSKLLPINLNQKWKISIIETNDKKAKEVAAEFPEASIYKADVTDESFVDEIGLDSFDLVICTTPNYEFNMIACAYLKTLGVYKTISLVQSAVLENVAYKIGVDVAVSFKDVVVDSIMSHLVSENVTSVHTMGDGKLEIIELQVSEKSPVLGQKLKDISQHGVYLVLLVTDENGEQIPTGDTEVKAGYKIVFIVKSSRSDEIIKIFGGN | failed |
| MKIILFLTLIVFTSCELYHYQECVRGTTVLLKEPCPSGTYEGNSPFHPLADNKFALTCTSTHFAFACADGTRHTYQLRARSVSPKLFIRQEEVQQELYSPLFLIVAALVFLILCFTIKRKTE | not failed |
| MKILAIINPISGIGSKSNIPSLIADVFAHDPHELFITYSQRAGHARELAAQAVEKHYDCVIAVGGDGTVNEIAQSLRYTDVVLGIVPKGSGNGLARALKLPLTVGKALEVIRAGHVRTIDCCEADSR | failed |
| MKILIVSNTALGDTILSTPLFRETRLALPKAHITALLNPVNAMLFETNPYLDKIELYGGRWRGFLGAWWKLWRRGFDVALLGHSNDPQITPLCLLLGISKIIKIPNHKNPWQRFHHNPLEHHHHHH | failed |
| MKILKNSYESYIIAEFFKYFLITFLFFFFVFFINQILFFMRILLQNYVPFFKAFIFIIYSLPMVIALSPPFASLISVILTIHKFKLHNEILAFRSIGISIFDLLVPFFKLGIVIAFVSFISNDILLPLGSIGRLKIFNEIKEEVPHLVLKPYSSKQYGDLIFVSGEKSENGYKNVTFFDNTGLKGFDRIFMAKNLDIRKENFQVYFILNDVLSIALTDSESGFYDYFYADKMKYSIDQVTFSDSFLLNYVTPSQMSMRDVIKLIKKQNNLIADSNIKNNLEGDFLSLNFSNLYLNYLYNQNYYVDESYVFENLNYMYNLNLNFKPYQDRSMKQNLALFNLEFYQKISLPLSVLFFIFLAFSMGMYSNRKYSIILELVISIIVCVFYWVMFIGGKVYTVQYAPSPIIVTILPNLILIIAGAILFLRLLKK | failed |
| MKILLLGGNGFIGRRLAARLIEAGHELSAPSRVELDLARPNQDWAAWVDGVDAVANLAGAFRQGRAGGFEAIHHAGPLRLAALARAHGVRRWVQLSALGAAAHAGAPFLSSKGRGDAALLDCGMEAVVARPSLIYGADGASSRLLLRLARLPFWLLPEGGGQRIQPVAAADVAEGLQRLIEGDARGVIDFVGAAEASLADYLRQLRRLQGVGGAAWLCPVPAWLAAGLAAACGCWPGSLLNRDSLRMLRQGSTADPAAFAALLGRQPLSFRQFGEVA | failed |
| MKILQILSRLYVADLNPALEFYEELLETPVAMRFEIPQTGVELAQISTILLIAGSEEALKPFRNTQATFLVDSLDKFKTFLEENGAEIIRGPSKVPTGRNMTVRHSDGSVIEYVEHSKIE | not failed |
| MKILVFGGTRFFGKKLVERLVSEGHDVTIGTRGKTEDNFGDTVKRVVLNRESRDALFQLAKEDWDVIYDNICFSPKEALYAVDAFKGKVKRYIYTSSLSVYSQKGRALVEADFNPEHYEIVIGDKEDFDYGEGKRLAEAVFFQKASFPVVAVRFPIVLGLDDYTKRLHFHINHIKNHQEIGISNGQAEIGFITSDEAAHFLEWVGVESDLTGPVNATSNGTYALNGFIKMLEEKIGELALVEEVTDDVDDSPFGIEKTYYLDNAKATEAGFVFNDLKVWLPALVTDILKENLEHHHHHH | failed |
| MKIMTKTLNRTTLGLALGLASSQLLAAGFALNEQSISGMGTGFAGRSSSADDASTVFGNPAGMSRIKREQISVGAAAVIAKTDIDNGRGTFGGSNDGDMVPVVGVPMGYYVKPIDDHWAFGLGVYVPFGLVTDYEKGFAGRYWGDKSHVQIVTFQPTVSYAFNDKVSIGFGPTINRIDGELTSATLNAATPGRNDGKVKIEGDDTAIGFNAGILVQATDTTRLGLTYHSKVDYKLKGKTKIEGSGFGPFGGQKYDASLDISTPESVDFSITQQLDENWTVYAGSTWTRWSRLQDITVNNDGVPALLGGSAGPIGTITEEQNWHDTWAHAIGASYKVNKEWTLRTGFSVDQSPTNNVNRSPRIPTGDRKIISFGAGWSPTDDLTIDVAYSYLREDETKIRDSSATKGSYSADYRNTAHGLGTSVTYRF | failed |
| MKISEVLVKVGDGVHTLLLDRPIVRDGRKFDAPLLWMVVLMTAFGLLMIYSASVYLASKEGGDQFFYLTRQAGFVVAGLIASGFLWFLCRMRTWRRLVPWIFALSGLLLVAVLIAGREINGATRWIPLGPLNFQPTELFKLAVILYLASLFTRREEVLRSMESLGWQSIWRGTANLIMSATNPQARRETLEMYGRFRAIILPIMLVAFGLVLIMVQPDFGSFVVITVITVGMLFLAGLPWKYFFVLVGSVLGGMVLMITAAPYRVQRVVAFLDPWKDPQGAGYQLTHSLMAIGRGEWFGMGLGASLSKRGFLPEAHTDFIFAIIAEEFGFFGMCVLIFCYGWLVVRAFSIGKQSRDLGLTFNAYIASGIGIWIGIQSFFNIGVNIGALPTKGLTLPLMSYGGSSVFFMLISMMLLLRIDYENRQKMRGYRVE | failed |
| MKISLVTVTFNSAKTLCDTIHSVLSQSYTNIEYIIVDGLSNDETVTLIKEYEPLFQGRLKWISEKDKGLYDAMNKGIRMSTGDIVGIINSDDFYHRGDVLEKVAESFEAGETEAIYGDVRFVNPDNLDRTVRYYSSKRFVPSLFRFGFMPAHPTFFTYRKYFDQFGYYKTNYKIAADYELLVRFLYVHRLKSKYLPLDFMKMRTGGASTASIKSNILLNKEIVRACKENGIWTCYPLLLLKYLVKVFELIFIKKLEHHHHHH | not failed |
| MKISPSLMCMDLLKFKEQIEFIDSHADYFHIDIMDGHFVPNLTLSPFFVSQVKKLATKPLDCHLMVTRPQDYIAQLARAGADFITLHPETINGQAFRLIDEIRRHDMKVGLILNPETPVEAMKYYIHKADKITVMTVDPGFAGQPFIPEMLDKLAELKAWREREGLEYEIEVDGSCNQATYEKLMAAGADVFIVGTSGLFNHAENIDEAWRIMTAQILAAKSEVQPHAKTA | failed |
| MKITRQIFIYFSFLMAVALFFSCKTTEKAVKSPVTEETKKAEKTGKKSPREEFNDKLTHLSKKGDLEGILKLIDESDPELTKDFKIQYLKLSILISMRKTKEAETFADELSKAYPNNTEILYAQVMLAQAENNTQKKNQYLKKILAINPKDSRALTEQGLDFYSAKKYNDARRKFIEAYKADPKCTEALIGLGRINYLEGKLDQAEANLTAVLEQEPNNSTALAELARIKSETNRMYQALQDINRAAELEPNNPSHWNDIGSYNLTIGRKEEAKKAYDKVIELTPDSYVAYIYRAGINDELGYKEDALADYIKVCNLYPPYYFALEGAGILLWEKGDWLNAGTAFLKALNKAPGSYQYALLYAISLYKQNKKPDAKKFMQNYLKSINRTEKENEYFLCRLFIDFAGDSELINRATAETDMVKKGRLFFYLGEFYNLTKKYTLAEKCYVQVMSIENPAFFEYRFAKKAMDEFNSSNGK | failed |
| MKITVIVPTYRRTKDLTRCLESLEKQSRPADEVLVVVRDTDVETWQFLETIAPHSLPLHTTTVRVPGVVAAMNAGLDIAQGDIIAFTDDDAAPHSNWLAQIETHFLAHEQIAGVGGRDWVYHGDRLEDGTCPVVGQVHWFGRVIGNHHIGIGKPREVDVLKGVNMSFRRSAVHGLRFDQRMLGTGAQVHFEVAFCLALKRAGWKLIYDPQIGVNHYPAQRFDEDQRQSFNHLAVTNAVHNETLALLEHLSPTQQLTFLLWATLVGTRDSMGLIQFLRFLPSDRALAGQKLLAAWYGRWRGWRTWQSSIRFAQIKN | failed |
| MKIVGIYLAAGKSRRTGPGLHKLYLPTGNTLLGNKALHTSLSSNLSDVIVVSNQPSWLLHYTQVERVHILSCEKSCLGQSYSLHCGLEKAESMNADGVVVMLADQPFITVKLLNSLIDSYEHLPQLDYVAASFQGIPQPPILFSKGIFPSLKKLKGDQGARSIFFDKSFQGKITVYSDAKLFYDVNTIEDYNVIKNSLLLEHHHHHH | failed |
| MKIVIAPDSYKESLSALEVATAIEQGFREIWPDADYLKLPLADGGEGTVEAMVEATAGRIVHVEVTGPLGHRVNAFYGLSGDARSAFIEMAAASGLEQVPPAQRDPLKTTSWGTGELIRHALDAGVEHIIIGIGGSATNDGGAGMVQALGARLRDAQGNDIAQGGIGLETLASIDISGLDKRLSACHIEVACDVTNPLTGKEGASAVFGPQKGATPEMIERLDTALTRYAHLIARDLHVDVLDLAGGGAAGGMGAALYAFCGAQLRRGIEIVTDALHLEACLADADLVITGEGRIDSQTIHGKVPIGVANIAKRYNKPVIGIAGSLTADVSVVHEHGLDAVFSVIYTICTLEDALKNASENVRMTARNVAATLKAGQQLR | not failed |
| MKIVIIGGFLGGGKTTVLNHLLAESLKESLKPAVIMNEFGKMSVDGALVSEDIPLSELTEGCICCAMKADVSEQLHQLYLKEQPDIVFIECSGIAEPVSVLDACLTPILAPFTTITHMIGVIDASMYKHIKSFPKDIQGLFYEQLAYCSVLFVNKIDSADVETTSKLLKDLEVINPEADIQVGMHGSVTLPISVRQMTATSDNKHESLHKTINHQFVQSPVTCTKAEFIKRLACLPSHIYRLKGFMTFEDTTHTYLIQFTQGQYELTPVAFSKKVPEYLVLIGKGISKEDYQCLEQLEHHHHHH | failed |
| MKKASEYYYYLGDICWRKEKTDSAKYYFMEGIKTDETYAMNYVGIGIITMKSNATEGQRSFDKALQMTSQKNSQVLNAIGEYYILEADKAELPKGIALLKKSTEIDAKNAMSWILLGDAYGKQAEGSKQAESYGKAANLFHSVPLLKMKYGKMYAAARNKDLSIKYYNEGLAADPTYGPIYRELGDLYNRFRQYDLAIQNYKKYLTYIDSNDDVEFRYADFLFKNNNYAEAIEVFNKLEAKKYNSPYIYNRRAVCYYELEHHHHHH | failed |
| MKKESLFRYAREHFNSEPEYLWSNLPDYAVLRHDHGDKWFGIVMSVRGSTLGLKTDDKVDILDVKVRPEYIGSLRQKEGVLPAYHMNKEHWISVILSGPLSTKEIHELLADSHELTSGLEHHHHHH | not failed |
| MKKFAIMGLGTFGVRMLDELIKIGAEVIIIEQNKDLIEMYKSKASSAIVLEEISELSVRKILPSKVDTVIVDFGRKVELSVISTTILKNLGIANIVVRAQSDEHGRLLKTVGATRIIYPDSEAAKRTTPILAADLLLKFMPISKNLALAEVGVEARYVGKSLAESNIRKDMGVNIIARRKKESEDFIFMDDPEYKFEEDDVLLVVASEEHIYNFSGGKISLKNNLKKDGEIKPSIFKNLFSSKKV | failed |
| MKKFGLGVYLLLLGILGGSLIILGAIVAPIVFKASSVLPELHLTPFESGKLMAQIFVRFNYVLGAIGFVVLLYEIISFIYYKRSLVYLILGVAIGALCLLFVFYYTPYILNAQKAGEAALQSAEFARSHAQSEWLFKELFVLVCALFFWRLLGKNVL | failed |
| MKKFIILLSLLILLPLTAASKPLIPIMKTLFTDVTGTVPDAEEIAHKAELFRQQTGIAPFIVVLPDINNEASLRQNGKAMLAHASSSLSDVKGSVLLLFTTREPRLIMITNGQVESGLDDKHLGLLIENHTLAYLNADLWYQGINNALAVLQAQILKQSTPPLTYYPHPGQQHENAPPGSTNTLGFIAWAATFILFSRIFYYTTRFIYALKFAVAMTIANMGYQALCLYIDNSFAITRISPLWAGLIGVCTFIAALLLTSKR | failed |
| MKKFLAIITLCLLFFSFTIGCERASLNRIGKDVYYMQIKGEGTIEKVDGRNLRNYTLPAYDEDGVKKQITFRSTKKENDHKLNKYAFLRLYVDQDDNSKNEISSIEVKSYEEIQKADLPEKVKDKFTIKLEHHHHHH | not failed |
| MKKFVTRRLGRKKRRDTEIVLPTKDDDCREEHGSEVSCMEDVEEMLQELSMKGEFVFGSFWRQGDSAANDFDFGNSQYEIANYKDHRSLSLLITQDVLLER | failed |
